This data set in a line: soluble on expression in E. coli; label from the status in PepcDB or PDB records.
As to “MGDIMRPIPFEELLTRIFDEYQQQRSIFGIPEQQFYSPVKGKTVSVFGETCATPVGPAAGPHTQLAQNIVTSWLTGGRFIELKTVQILDRLELEKPCIDAEDECFNTEWSTEFTLLKAWDEYLKAWFALHLLEAMFQPSDSGKSFIFNMSVGYNLEGIKQPPMQQFIDNMMDASDHPKFAQYRDTLNKLLQDDAFLARHGLQEKRESLQALPARIPTSMVHGVTLSTMHGCPPHEIEAICRYMLEEKGLNTFVKLNPTLLGYARVREILDVCGFGYIGLKEESFDHDLKLTQALEMLERLMALAKEKSLGFGVKLTNTLGTINNKGALPGEEMYMSGRALFPLSINVAAVLSRAFDGKLPISYSGGASQLTIRDIFDTGIRPITMATDLLKPGGYLRLSACMRELEGSDAWGLDHVDVERLNRLAADALTMEYTQKHWKPEERIEVAEDLPLTDCYVAPCVTACAIKQDIPEYIRLLGEHRYADALELIYQRNALPAITGHICDHQCQYNCTRLDYDSALNIRELKKVALEKGWDEYKQRWHKPAGSGSRHPVAVIGAGPAGLAAGYFLARAGHPVTLFEREANAGGVVKNIIPQFRIPAELIQHDIDFVAAHGVKFEYGCSPDLTIEQLKNQGFHYVLIATGTDKNSGVKLAGDNQNVWKSLPFLREYNKGTALKLGKHVVVVGAGNTAMDCARAALRVPGVEKATIVYRRSLQEMPAWREEYEEALHDGVEFRFLNNPERFDADGTLTLRVMSLGEPDEKGRRRPVETNETVTLLVDSLITAIGEQQDTEALNAMGVPLDKNGWPDVDHNGETRLTDVFMIGDVQRGPSSIVAAVGTARRATDAILSRENIRSHQNDKYWNNVNPAEIYQRKGDISITLVNSDDRDAFVAQEAARCLECNYVCSKCVDVCPNRANVSIAVPGFQNRFQTLHLDAYCNECGNCAQFCPWNGKPYKDKITVFSLAQDFDNSSNPGFLVEDCRVRVRLNNQSWVLNIDSKGQFNNVPPELNDMCRIISHVHQHHHYLLGRVEV”, the “soluble on expression in E. coli” value is listed as “soluble”. The entry for “MGDTGKLGRIIRHDAFQVWEGDEPPKLRYVFLFRNKIMFTEQDASTSPPSYTHYSSIRLDKYNIRQHTTDEDTIVLQPQEPGLPSFRIKPKDFETSEYVRKAWLRDIAEEQEKYAAERD” is “soluble”.

As to “MGEAAKDQTEEVIQAWYLDNKEEDQKLPHHKDPKEFVSLDKLAELGVLCWRLDADNYETDEELKRIRESRGYSYMDLCEVCPEKLPNYEEKVKMFFEEHLHIDEEIRYCLAGSGYFDVRDLNDIWIRVWVKKGGLIVFPAGIYHRFTVDSDNYMKAMRLFVGGPVWTAYNRPHDHLPARKAYMKKFLKVIGDRNIDASA”, the “soluble on expression in E. coli” value is listed as “soluble”. The entry for “MGENVLICLCGSVNSINISHYIIELKSKFDEVNVIASTNGRKFINGEILKQFCDNYYDEFEDPFLNHVDIANKHDKIIILPATSNTINKIANGICDNLLLTICHTAFEKLSIFPNMNLRMWENPVTQNNIRLLKDYGVSIYPANISESYELASKTFKKNVVAPEPYKVLEFI” is “not soluble”; for “MGEQPIFSTRAHVFQIDPNTKKNWVPTSKHAVTVSYFYDSTRNVYRIISLDGSKAIINSTITPNMTFTKTSQKFGQWADSRANTVYGLGFSSEHHLSKFAEKFQEFKEAAR” it is “soluble”; for “MGEQSHEKDHDEAHSYNPFVRSAVEYDADTRLQMAENAASARKLFVSSALKDIIVNPENFYHDFQQSAQMAEDANQRRQVSYNTKREAHIHQLKAQGLPLPSNIPMIEINPTRVTLNMEFESQYYSLMTSDNGDHENVASIMAETNTLIQLPDRSVGGTTPDPFAQQVTITGYFGDVDRARMLMRRNCHFTVFMALSKMKMPLHELQAHVRQNPIQNVEMSFVDAPEKNGIVTTYLRITAREKNQHELIEAAKRLNEILFRESPAPENNFTLHFTLSTYYVDQVLGSSSTAQLMPVIERETTTIISYPCYNNRNETRGNIYEIKVVGNIDNVLKARRYIMDLLPISMCFNIKNTDMAEPSRVSDRNIHMIIDESGIILKMTPSVYEPADLLSGEVPLNCASLRSKEFNIKKLYTAYQKVLSKKFDFIAPQPNDYDNSIWHHSLPANFLKNFNMPCRGELSDGSNGRRHRSSSIASSRSKHSYMSKGKQFSESSGGPSRSHTRVSSFSENSSTVPIMQFPTPHFAPPMLTPHHHMLKYVYLQQHQQAQTFLKGAAGLHPGTHIMFPPPIIVDGSFVSALPFADPVVFDGFPYVHGLFPVNEAEQHRNHRESSPSLRSTQEIRKPSRNMGNRPSSSTGSYYPSTTPRQRVYEQVREDDLRSHIGSRRTSVNGDDQNVESMHDQGYERQYPRQHQRLQKDDQQRWKTGSRGDIHSSRTINVHRDVRNSNEYDFHVGNSGPAKRSPSLEQVQLQMTHHLKLKSNDVDLDHEKLYMHESPHNDSDTTVSASGFGNDLMDGDFVQRFLSNANINESGRRPRTVSCFTEKDGQSARYIDSDGAYSVVDHASTHQSRSYDSFRKVGDNGVTKTILEPRARVEKDYGKISLEHKTKYSNEYGDEEKSAENDTSSLGSRQYRIDPMKRNIYILRNRDFSNSFFYFLHQFSLYMNPICAYRIRLHQFLSYKPSICLSRISLYPRDLYD” it is “not soluble”. The entry for “MGESPSNPSGLTFRLADDRKLKAIYVPAAEKASVNLGFLRHALVAGGFADLFIYDHALVELIKRYNAATQEFVYDVGEQRDGTYIIRNTPDNIEAYLTLTRPYGGKPVCPEQLHQALREQGVIYGVLTDEIETAIEAGEATDLLIARGIPPEQGTDAELVSLIPQARDRQPELQDNETVDYRDRGEISSVKAGDPLMRRIPPTPGKPGTNIMGKEVPAPPAKDLKFTPNLPGTTFAPDDPDLLIAAIDGQPVLVANGVMIEPVIKIKNVDLSSGNISFKGSVDISGDITPGMTVRATGDITVGGVVEGATLEAEGDIVVRGGIIGPGENRDPKGKSGQERALIRAKGNIEALFVENSLVEAGGMIQIAGFAMQSNLVAGTQVVVGQEGTTKGHIIGGSCQAVSRIQAVTLGSHAGVHTTVSVGVNPHVKEKLSTVKLKIAEAERELDELTKRLDYFASTPLKGSPEQINETRQAKDKLVTALSELKGERKRLEKRLEQASDALIRVERAVLSGVVISIGTKTLEVKDDMEGGITFRLEDDAIVASQLEHHHHHH” is “not soluble”; for “MGFDESSQMIDPDGELSFFKQNENRTPVTSVPSTSKAVLPFNFDDDEDDEYFKTPKIAEKKKKLPEAMAPVSEDSFDFDIAVPQSIINRIPAKTTAQPAKKYPKIPNLSAKTSSKPTEAPKTENVLKIKSKSQEIAQKPQKSTRISSFFSRTTSSTSNLTEYKRGKSAKMKHISKMEQFFVEHERDIICVGECGLDHTISQFKLTTEDFEEQETVFKWQIDLAKHFEKPLILEIPDISRNVHSRSAARRTIEILLECHVAPDQVVLHAFDGTPGDLKLGLEAGYLFSIPPSFGKSEETTQLIESIPLSQLLLETDSPALGPEKGCKNVPANLRISAEIVAKIKKLEIDDIISATSTNANRIFKF” it is “soluble”; for “MGFEQLAELRDRLRAQAAQAKPAQTKSSAGRAKKREAVEPGVEAIWRLQRHFPLAFPKSPAAKVPLKQGILQDAQQHLELLGITAEQLKQAIATWCQGSRYWSCMVEDAPRLDLQGQVAGKVTAEQAVYARRQASRRQREQMREKRAKRAQAGGEAPAATEAPTPEAPATEASPEAN” it is “not soluble”. The entry for “MGFHLRGLGGSLKPLPFSTMYLEATGKSIEADLRTVFARDPKLSVMSEPKGAQAVVSVVSENQSKDILTINTGGRINEYQLTYTVVVRTVIGGVPVDPDMVVTVRRSLNYSDNQVLGKQQEEDLLWADARRDAAEQIVRRLAYLKVPAAPLAGPVSVKPDAVPQPLEHHHHHH” is “soluble”; for “MGGDMHEITLCQRALELIEQQAAKHGAKRVTGVWLKIGAFSCVETSSLAFCFDLVCRGSVAEGCKLHLEEQEAECWCETCQQYVTLLTQRVRRCPQCHGDMLQIVADDGLQIRRIEIDQE” it is “not soluble”; for “MGGGKYETQMCVIIIEDIFGKIVAKVMETILKESCQLSTLFYKLKGQISNTLIRKSVSTLINFGFVTFHLDTNNRTTYVADSDQIQHVISSPRACLIAKTLYGPAAESICVELISQGRLTVSETIRRIQATDETAVFSDIKKSFEELAAAHFLIRVPSVESEIHGCPQFVTNFDPFAISTNIMEKKEGTSTSDSTSNNRKRKADSTPEDGDAGQYWRINWIRFNGYLRDELIIDYLIGGGSKGTMTNLNVKKEETIEDPQGDRTQYITQNVAHLMFKINETRAKPMSMESITASLTDLQRLVKENGLNLAKPDIELACQILVDESDGIIRKLGESNGGIFIVDIRRAIRQICRHHCESLIREQFEGRAIRVMRLLENRHYLDEEQVEKLSMMSGKEAREMLYALVEEGYVFNKPVGRSNDFQPARTFYLYYVDLPRTIRGLVEYTCKLVRNLIVRQRHERTENKSVLDKDANVQPIIENIRSSEQLDEASKLAQIAEVEEMYLPGPDRAQLNRFRKAQATLLAAQDQSIRVLLSFKLFLASGEN” it is “not soluble”. For the sequence “MGGITMTAVVSNRDKINFHEVADHYHSNKIIFGIKFLKNWALERLASCAPVPSWRAKLHKMRGVNIGENVYIGYDVIFDRIHPEMITVGDYAEIGDRCILSAHSRGSLTTRQAYPRSIAPIKIGRGVSVNPGCIITQGVEIGDNSIIGVGSVVSRNISPNSLALGYPAKVIKKLDG”, the “soluble on expression in E. coli” value is “soluble”.

“MGGSGVEGLSGKRCWLAVRNASLCQFLETSLQRSGIVVTTYEGQEPTPEDVLITDEVVSKKWQGRAVVTFCRRHIGIPLEKAPGEWVHSVAAPHELPALLARIYLIEMESDDPANALPSTDKAVSDNDDMMILVVDDHPINRRLLADQLGSLGYQCKTANDGVDALNVLSKNHIDIVLSDVNMPNMDGYRLTQRIRQLGLTLPVIGVTANALAEEKQRCLESGMDSCLSKPVTLDVIKQTLTLYAERVRKSRDS”: the “soluble on expression in E. coli” value is “soluble”. The entry for “MGHHHHHHGGHMSLNISDVAKITGLTSKAIRFYEEKGLVTPPMRSENGYRTYTQQHLNELTLLRQARQVGFNLEESGELVNLFNDPQRHSADVKRRTLEKVAEIERHIEELQSMRDQLLALANACPGDDSADCPIIENLSGCCHHRAGEGGS” is “soluble”; for “MGHHHHHHGGHMSLSTKAKQQSSQQMTRGFEPYQETKGEEYMSERMRAHFTAILNKWKQELMEEVDRTVHHMQDEAANFPDPADRASQEEEFSLELRARDRERKLIKKIDETLQLIEDEEYGWCDSCGVEIGIRRLEARPTATLCIDCKTLAEIREKQLGSEGGS” it is “soluble”; for “MGHHHHHHHHHHSSGHIEGRHMLGLGASDFEFGVDPSADPELALALRVSMEEQRQRQEEEARRAAAASAAEAGIATTGTEDSDDALLKMTISQQEFGRTGLPDLSSMTEEEQIAYAMQMSLQGAEFGQAESA” it is “soluble”. The entry for “MGHHHHHHHHSSGHIEGRHMAHLLIVNVASHGLILPTLTVVTELVRRGHRVSYVTAGGFAEPVRAAGATVVPYQSEIIDADAAEVFGSDDLGVRPHLMYLRENVSVLRATAEALDGDVPDLVLYDDFPFIAGQLLAARWRRPAVRLSAAFASNEHYSFSQDMVTLAGTIDPLDLPVFRDTLRDLLAEHGLSRSVVDCWNHVEQLNLVFVPKAFQIAGDTFDDRFVFVGPCFDDRRFLGEWTRPADDLPVVLVSLGTTFNDRPGFFRDCARAFDGQPWHVVMTLGGQVDPAALGDLPPNVEAHRWVPHVKVLEQATVCVTHGGMGTLMEALYWGRPLVVVPQSFDVQPMARRVDQLGLGAVLPGEKADGDTLLAAVGAVAADPALLARVEAMRGHVRRAGGAARAADAVEAYLARAR” is “soluble”; for “MGHHHHHHMEARNMTPFTYFSLPMQKLFLRNQAAVRNKPYAKYFRSEMRVPLSAVRKIQQGPMALEDTLTPSIEDINRLLEPDFVSEESGYALLPGPMAYVQSRKFFPGCTAQMFKWWFIWHPAESERYTLWFPYAHVSNPCVHHQRLRDESLSFEERLYGNTFCASEYVGDRLMHLHIDFQQPASLGLNTDLYREAKIDGSVSALMSLADHPEVPVSLMVHLFKEVPDGMYLTSRYWVGAHPSMARFPGAEKAASLLKENGFGEAELETLAYEFAVHDMCEFNHLASFLPDLYREFGTPAA” it is “soluble”.

For the origin of these results see the DeepSol protein solubility set.
